The target in the experiment is GST-tag (glutathione S-transferase) freed from GST-ΔN-ATAD2B. Description: SEC; Superdex 200 Increase 10/300 GL (ÄKTAprime), ATAD2B sample from E. coli against a molecular-weight standard mixture; peak 1 ~9 ml near thyroglobulin (670 kDa), peak 2 ~15 ml before ovalbumin (44 kDa).

Regarding “GST-tag (glutathione S-transferase) freed from GST-ΔN-ATAD2B”, the stoichiometry N turned out to be 2.
